This is an account of results in patent publication US20250018014A1, “METHOD FOR TREATING AND/OR PREVENTING REGNASE-1-RELATED DISEASE” (OSAKA UNIVERSITY, priority 2018, published 2025).

Data set [1] addresses T1, FLAG-tagged Regnase-1 AA mutant (S435A/S439A), purified from or expressed in Regnase-1-deficient MEFs.
T1 chain: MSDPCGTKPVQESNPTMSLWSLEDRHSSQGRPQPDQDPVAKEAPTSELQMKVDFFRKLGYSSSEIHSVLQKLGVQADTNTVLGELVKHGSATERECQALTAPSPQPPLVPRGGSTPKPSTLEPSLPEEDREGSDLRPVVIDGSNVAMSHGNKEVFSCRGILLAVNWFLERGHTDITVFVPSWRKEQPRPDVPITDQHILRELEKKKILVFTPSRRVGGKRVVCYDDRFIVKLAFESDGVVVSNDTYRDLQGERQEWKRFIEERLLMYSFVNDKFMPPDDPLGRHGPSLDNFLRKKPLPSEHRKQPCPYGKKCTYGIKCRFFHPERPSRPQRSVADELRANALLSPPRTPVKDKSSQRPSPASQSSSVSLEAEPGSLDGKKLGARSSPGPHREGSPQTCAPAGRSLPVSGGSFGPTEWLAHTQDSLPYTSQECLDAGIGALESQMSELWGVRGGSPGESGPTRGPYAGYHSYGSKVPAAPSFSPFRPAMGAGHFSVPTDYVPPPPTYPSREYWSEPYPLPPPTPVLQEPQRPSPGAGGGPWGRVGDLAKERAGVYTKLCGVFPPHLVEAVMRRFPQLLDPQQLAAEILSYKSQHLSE

Data set [2] concerns the target T2, biotinylated human Regnase-1 (full length, C-terminal BirA recognition sequence, GST tag cleaved).
T2 chain: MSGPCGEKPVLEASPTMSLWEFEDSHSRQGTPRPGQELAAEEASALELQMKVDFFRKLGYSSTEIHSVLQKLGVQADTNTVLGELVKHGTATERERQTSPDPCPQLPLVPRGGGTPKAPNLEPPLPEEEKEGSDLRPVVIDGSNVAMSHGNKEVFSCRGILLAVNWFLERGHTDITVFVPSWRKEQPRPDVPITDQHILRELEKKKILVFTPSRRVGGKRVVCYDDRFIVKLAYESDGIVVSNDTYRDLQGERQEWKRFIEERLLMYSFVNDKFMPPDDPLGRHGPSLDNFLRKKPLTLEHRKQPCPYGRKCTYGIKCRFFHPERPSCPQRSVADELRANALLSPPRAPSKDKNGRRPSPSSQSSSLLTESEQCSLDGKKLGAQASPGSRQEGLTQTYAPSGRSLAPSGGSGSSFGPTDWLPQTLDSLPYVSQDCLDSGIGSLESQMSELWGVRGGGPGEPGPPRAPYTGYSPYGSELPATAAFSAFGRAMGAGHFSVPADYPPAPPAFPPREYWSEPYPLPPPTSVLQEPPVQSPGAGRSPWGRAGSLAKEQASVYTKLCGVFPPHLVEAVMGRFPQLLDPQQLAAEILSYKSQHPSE

B1: GST-tagged TBK1 (Sigma) (protein)
chain: MQSTSNHLWLLSDILGQGATANVFRGRHKKTGDLFAIKVFNNISFLRPVDVQMREFEVLKKLNHKNIVKLFAIEEETTTRHKVLIMEFCPCGSLYTVLEEPSNAYGLPESEFLIVLRDVVGGMNHLRENGIVHRDIKPGNIMRVIGEDGQSVYKLTDFGAARELEDDEQFVSLYGTEEYLHPDMYERAVLRKDHQKKYGATVDLWSIGVTFYHAATGSLPFRPFEGPRRNKEVMYKIITGKPSGAISGVQKAENGPIDWSGDMPVSCSLSRGLQVLLTPVLANILEADQEKCWGFDQFFAETSDILHRMVIHVFSLQQMTAHKIYIHSYNTATIFHELVYKQTKIISSNQELIYEGRRLVLEPGRLAQHFPKTTEENPIFVVSREPLNTIGLIYEKISLPKVHPRYDLDGDASMAKAITGVVCYACRIASTLLLYQELMRKGIRWLIELIKDDYNETVHKKTEVVITLDFCIRNIEKTVKVYEKLMKINLEAAELGEISDIHTKLLRLSSSQGTIETSLQDIDSRLSPGGSLADAWAHQEGTHPKDRNVEKLQVLLNCMTEIYYQFKKDKAERRLAYNEEQIHKFDKQKLYYHATKAMTHFTDECVKKYEAFLNKSEEWIRKMLHLRKQLLSLTNQCFDIEEEVSKYQEYTNELQETLPQKMFTASSGIKHTMTPIYPSSNTLVEMTLGMKKLKEEMEGVVKELAENNHILERFGSLTMDGGLRNVDCL
As for B1, in data set [1], the “in vitro phosphorylation (mobility shift by immunoblotting, 32P autoradiography)” value is reported as “Phosphorylation of recombinant Regnase-1 by recombinant TBK1 and/or IKKi under in vitro conditions was detected”.

B2: TBK1 (manufactured by SignalChem) (protein)
chain: MQSTSNHLWLLSDILGQGATANVFRGRHKKTGDLFAIKVFNNISFLRPVDVQMREFEVLKKLNHKNIVKLFAIEEETTTRHKVLIMEFCPCGSLYTVLEEPSNAYGLPESEFLIVLRDVVGGMNHLRENGIVHRDIKPGNIMRVIGEDGQSVYKLTDFGAARELEDDEQFVSLYGTEEYLHPDMYERAVLRKDHQKKYGATVDLWSIGVTFYHAATGSLPFRPFEGPRRNKEVMYKIITGKPSGAISGVQKAENGPIDWSGDMPVSCSLSRGLQVLLTPVLANILEADQEKCWGFDQFFAETSDILHRMVIHVFSLQQMTAHKIYIHSYNTATIFHELVYKQTKIISSNQELIYEGRRLVLEPGRLAQHFPKTTEENPIFVVSREPLNTIGLIYEKISLPKVHPRYDLDGDASMAKAITGVVCYACRIASTLLLYQELMRKGIRWLIELIKDDYNETVHKKTEVVITLDFCIRNIEKTVKVYEKLMKINLEAAELGEISDIHTKLLRLSSSQGTIETSLQDIDSRLSPGGSLADAWAHQEGTHPKDRNVEKLQVLLNCMTEIYYQFKKDKAERRLAYNEEQIHKFDKQKLYYHATKAMTHFTDECVKKYEAFLNKSEEWIRKMLHLRKQLLSLTNQCFDIEEEVSKYQEYTNELQETLPQKMFTASSGIKHTMTPIYPSSNTLVEMTLGMKKLKEEMEGVVKELAENNHILERFGSLTMDGGLRNVDCL
Turning to B2, the “in vitro phosphorylation reaction, western blotting with anti-phosphorylated Regnase-1 antibody” value in data set [2] is “it was confirmed that human Regnase-1 is phosphorylated by IKKβ and TBK1”.

B3: IKKβ (manufactured by SignalChem) (protein)
chain: MSWSPSLTTQTCGAWEMKERLGTGGFGNVIRWHNQETGEQIAIKQCRQELSPRNRERWCLEIQIMRRLTHPNVVAARDVPEGMQNLAPNDLPLLAMEYCQGGDLRKYLNQFENCCGLREGAILTLLSDIASALRYLHENRIIHRDLKPENIVLQQGEQRLIHKIIDLGYAKELDQGSLCTSFVGTLQYLAPELLEQQKYTVTVDYWSFGTLAFECITGFRPFLPNWQPVQWHSKVRQKSEVDIVVSEDLNGTVKFSSSLPYPNNLNSVLAERLEKWLQLMLMWHPRQRGTDPTYGPNGCFKALDDILNLKLVHILNMVTGTIHTYPVTEDESLQSLKARIQQDTGIPEEDQELLQEAGLALIPDKPATQCISDGKLNEGHTLDMDLVFLFDNSKITYETQISPRPQPESVSCILQEPKRNLAFFQLRKVWGQVWHSIQTLKEDCNRLQQGQRAAMMNLLRNNSCLSKMKNSMASMSQQLKAKLDFFKTSIQIDLEKYSEQTEFGITSDKLLLAWREMEQAVELCGRENEVKLLVERMMALQTDIVDLQRSPMGRKQGGTLDDLEEQARELYRRLREKPRDQRTEGDSQEMVRLLLQAIQSFEKKVRVIYTQLSKTVVCKQKALELLPKVEEVVSLMNEDEKTVVRLQEKRQKELWNLLKIACSKVRGPVSGSPDSMNASRLSQPGQLMSQPSTASNSLPEPAKKSEELVAEAHNLCTLLENAIQDTVREQDQSFTALDWSWLQTEEEEHSCLEQAS
For B3, the “in vitro phosphorylation reaction, western blotting with anti-phosphorylated Regnase-1 antibody” value in data set [2] is “it was confirmed that human Regnase-1 is phosphorylated by IKKβ and TBK1”.

B4: GST-tagged IKKi (Thermo Fisher Scientific) (protein)
chain: MQSTANYLWHTDDLLGQGATASVYKARNKKSGELVAVKVFNTTSYLRPREVQVREFEVLRKLNHQNIVKLFAVEETGGSRQKVLVMEYCSSGSLLSVLESPENAFGLPEDEFLVVLRCVVAGMNHLRENGIVHRDIKPGNIMRLVGEEGQSIYKLTDFGAARELDDDEKFVSVYGTEEYLHPDMYERAVLRKPQQKAFGVTVDLWSIGVTLYHAATGSLPFIPFGGPRRNKEIMYRITTEKPAGAIAGAQRRENGPLEWSYTLPITCQLSLGLQSQLVPILANILEVEQAKCWGFDQFFAETSDILQRVVVHVFSLSQAVLHHIYIHAHNTIAIFQEAVHKQTSVAPRHQEYLFEGHLCVLEPSVSAQHIAHTTASSPLTLFSTAIPKGLAFRDPALDVPKFVPKVDLQADYNTAKGVLGAGYQALRLARALLDGQELMFRGLHWVMEVLQATCRRTLEVARTSLLYLSSSLGTERFSSVAGTPEIQELKAAAELRSRLRTLAEVLSRCSQNITETQESLSSLNRELVKSRDQVHEDRSIQQIQCCLDKMNFIYKQFKKSRMRPGLGYNEEQIHKLDKVNFSHLAKRLLQVFQEECVQKYQASLVTHGKRMRVVHETRNHLRLVGCSVAACNTEAQGVQESLSKLLEELSHQLLQDRAKGAQASPPPIAPYPSPTRKDLLLHMQELCEGMKLLASDLLDNNRIIERLNRVPAPPDV
With B4, the “in vitro phosphorylation (mobility shift by immunoblotting, 32P autoradiography)” value in data set [1] is “Phosphorylation of recombinant Regnase-1 by recombinant TBK1 and/or IKKi under in vitro conditions was detected”.
